From article doi:10.1101/2023.10.30.564768 (2023)
Positions count from the first letter of the chain named. Names and notes keep the numbering of the source.

B1: LexA quad-mutant (QM): L89P, Q92W, E152A, K156A (natural protein)
chain: MKALTARQQEVFDLIRDHISQTGMPPTRAEIAQRLGFRSPNAAEEHLKALARKGVIEIVSGASRGIRLLQEEEEGLPLVGRVAAGEPLPAQWHIEGHYQVDPSLFKPNADFLLRVSGMSMKDIGIMDGDLLAVHKTQDVRNGQVVVARIDDAVTVARLKKQGNKVELLPENSEFKPIVVDLRQQSFTIEGLAVGVIRNGDWL
B2: His-LexA K156A (natural protein)
chain: B1 chain with P89L, W92Q, A152E

Target: T1, His-RecA WT, activated as RecA* (nucleoprotein filament on ssDNA with ATPγS) (E. coli, UniProt P0A7G6 1-353)
T1 chain: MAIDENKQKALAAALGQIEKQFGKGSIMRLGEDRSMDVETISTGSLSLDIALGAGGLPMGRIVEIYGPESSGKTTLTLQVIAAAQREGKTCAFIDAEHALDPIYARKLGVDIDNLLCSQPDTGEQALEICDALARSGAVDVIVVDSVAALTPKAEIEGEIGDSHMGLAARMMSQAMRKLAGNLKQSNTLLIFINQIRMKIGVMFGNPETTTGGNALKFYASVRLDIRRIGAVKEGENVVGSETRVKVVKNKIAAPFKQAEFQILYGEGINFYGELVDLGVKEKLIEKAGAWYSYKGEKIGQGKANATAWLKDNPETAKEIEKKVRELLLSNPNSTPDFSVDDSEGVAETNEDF
Assay: FP; competition against LexA-δ

Binder	IC50 [nM]
B1	3800
B2	500
